Numbered stars: 1 amine (or outer) side, 2 acyl side, 3 side chain; on linkers, the order of the positions; unused ones are H or OH. Bridge positions count the residues as written; N and C are the ends. Side chains are listed from the residue outwards. Ends that are not written are not given here. * marks the point of attachment. C20 diacid = O=C(O)CCCCCCCCCCCCCCCCCCC(=O)*; γGlu = O=C(O)[C@H](CCC(=O)[*:2])N[*:1]; AEEA = NCCOCCOCC(=O)O
T1: human amylin receptor (human, UniProt P30988 25-474; O60896 24-148, limits assumed)
T1 construct: whole, on cells; Used as cell membranes prepared from the Amylin 3(a)/CRE-luc BHK cells (Assay V); also called hAmylin-R; hAmylinR
T1 sequence (looked up) 1: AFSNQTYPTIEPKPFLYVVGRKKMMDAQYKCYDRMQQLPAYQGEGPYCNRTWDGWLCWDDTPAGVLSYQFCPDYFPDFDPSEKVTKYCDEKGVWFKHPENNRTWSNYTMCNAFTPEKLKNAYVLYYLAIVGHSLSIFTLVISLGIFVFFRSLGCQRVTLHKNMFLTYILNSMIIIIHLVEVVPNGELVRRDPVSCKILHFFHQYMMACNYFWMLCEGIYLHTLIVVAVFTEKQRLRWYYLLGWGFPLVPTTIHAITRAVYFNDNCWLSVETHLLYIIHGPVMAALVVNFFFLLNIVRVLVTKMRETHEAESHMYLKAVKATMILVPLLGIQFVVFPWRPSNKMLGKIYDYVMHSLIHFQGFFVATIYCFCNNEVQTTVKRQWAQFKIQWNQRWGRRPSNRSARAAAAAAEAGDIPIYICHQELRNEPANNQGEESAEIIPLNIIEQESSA
T1 sequence (looked up) 2: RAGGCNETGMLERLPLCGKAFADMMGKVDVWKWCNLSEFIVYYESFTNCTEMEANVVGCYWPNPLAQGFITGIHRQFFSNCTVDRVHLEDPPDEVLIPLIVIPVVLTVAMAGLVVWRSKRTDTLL


Biological target: T1, human amylin receptor
Assay: SPA competition vs 125I-rat amylin, membranes of amylin 3(a) receptor BHK cells (Assay V)
Procedure: The binding assay was performed using scintillation proximity assay (SPA) beads (RPNQ0001) from PerkinElmer and cell membranes from the Amylin 3(a)/CRE-luc cells (as described in Assay (II)) were used. Membranes were prepared in the following way; the cells were rinsed with PBS and incubated with Versene for approximately 5 min before harvesting. The cells were flushed with PBS and the cell-suspension was centrifuged for 5 min at 1000 rpm. Cells were homogenized (ultrathurrax) in a buffer containing 20 mM Na-HEPES and 10 mM EDTA (pH 7.4) and centrifuged at 20.000 rpm for 15 min. The resulting pellet was resuspended, homogenized and centrifuged (20.000 rpm, 15 min) in a buffer containing 20 mM Na-HEPES and 0.1 mM EDTA (pH 7.4, buffer 2). The resulting pellet was resuspended in buffer 2 and protein concentration was measured (BCA protein Assay, Pierce). The homogenate was kept cold during the whole procedure. The membranes were kept at −80° C. until use. The assay was performed in a 384 well Optiplate (PerkinElmer) in a total volume of 40 ul. Membranes were mixed with SPA beads. Final concentration of membranes 35 ng/μL final and SPA beads was 0.05 mg/well. Test-compounds were dissolved in DMSO and further diluted in assay buffer (50 mM Hepes, pH 7.4, 1 mM CaCl2, 5 mM MgCl₂, 0.1% OA and 0.02% Tween20). […] The final mixture was incubated with shaking at 400 rpm for 120 min at 25° C. prior to centrifugation (1500 rpm, 10 min). Samples were analyzed on TopCounter™ (Packard). The IC₅₀ was calculated using (one site binding competition analysis) GraphPad Prism5 as a measure of receptor affinity.

Row | Binder | IC50
1 | K([γGlu-C20 diacid])CNTATCATQRLANFLRHSSPNFGAIPSSTNVGSKTY-NH2 (disulfide 2-7; N-terminus assumed; SMILES CC[C@H](C)[C@H](NC(=O)[C@H](C)NC(=O)CNC(=O)[C@H](Cc1ccccc1)NC(=O)[C@H](CC(N)=O)NC(=O)[C@@H]1CCCN1C(=O)[C@H](CO)NC(=O)[C@H](CO)NC(=O)[C@H](Cc1c[nH]cn1)NC(=O)[C@H](CCCNC(=N)N)NC(=O)[C@H](CC(C)C)NC(=O)[C@H](Cc1ccccc1)NC(=O)[C@H](CC(N)=O)NC(=O)[C@H](C)NC(=O)[C@H](CC(C)C)NC(=O)[C@H](CCCNC(=N)N)NC(=O)[C@H](CCC(N)=O)NC(=O)[C@@H](NC(=O)[C@H](C)NC(=O)[C@@H]1CSSC[C@H](NC(=O)[C@@H](N)CCCCNC(=O)CC[C@H](NC(=O)CCCCCCCCCCCCCCCCCCC(=O)O)C(=O)O)C(=O)N[C@@H](CC(N)=O)C(=O)N[C@@H]([C@@H](C)O)C(=O)N[C@@H](C)C(=O)N[C@@H]([C@@H](C)O)C(=O)N1)[C@@H](C)O)C(=O)N1CCC[C@H]1C(=O)N[C@@H](CO)C(=O)N[C@@H](CO)C(=O)N[C@H](C(=O)N[C@@H](CC(N)=O)C(=O)N[C@H](C(=O)NCC(=O)N[C@@H](CO)C(=O)N[C@@H](CCCCN)C(=O)N[C@H](C(=O)N[C@@H](Cc1ccc(O)cc1)C(N)=O)[C@@H](C)O)C(C)C)[C@@H](C)O, also called compound 35) [N^ε1-[(4S)-4-carboxy-4-(19-carboxynonadecanoylamino)butanoyl]-[Arg17,Pro21,Pro27,Lys35]-h-amylin] | 0.97 nM
2 | K([γGlu-C20 diacid])CNTATCATQRLANFLRHSSPNFGAIPSSTNVGSETY-NH2 (disulfide 2-7; N-terminus assumed; SMILES CC[C@H](C)[C@H](NC(=O)[C@H](C)NC(=O)CNC(=O)[C@H](Cc1ccccc1)NC(=O)[C@H](CC(N)=O)NC(=O)[C@@H]1CCCN1C(=O)[C@H](CO)NC(=O)[C@H](CO)NC(=O)[C@H](Cc1c[nH]cn1)NC(=O)[C@H](CCCNC(=N)N)NC(=O)[C@H](CC(C)C)NC(=O)[C@H](Cc1ccccc1)NC(=O)[C@H](CC(N)=O)NC(=O)[C@H](C)NC(=O)[C@H](CC(C)C)NC(=O)[C@H](CCCNC(=N)N)NC(=O)[C@H](CCC(N)=O)NC(=O)[C@@H](NC(=O)[C@H](C)NC(=O)[C@@H]1CSSC[C@H](NC(=O)[C@@H](N)CCCCNC(=O)CC[C@H](NC(=O)CCCCCCCCCCCCCCCCCCC(=O)O)C(=O)O)C(=O)N[C@@H](CC(N)=O)C(=O)N[C@@H]([C@@H](C)O)C(=O)N[C@@H](C)C(=O)N[C@@H]([C@@H](C)O)C(=O)N1)[C@@H](C)O)C(=O)N1CCC[C@H]1C(=O)N[C@@H](CO)C(=O)N[C@@H](CO)C(=O)N[C@H](C(=O)N[C@@H](CC(N)=O)C(=O)N[C@H](C(=O)NCC(=O)N[C@@H](CO)C(=O)N[C@@H](CCC(=O)O)C(=O)N[C@H](C(=O)N[C@@H](Cc1ccc(O)cc1)C(N)=O)[C@@H](C)O)C(C)C)[C@@H](C)O, also called compound 27) [N^ε1-[(4S)-4-carboxy-4-(19-carboxynonadecanoylamino)butanoyl]-[Arg17,Pro21,Pro27,Glu35]-h-amylin] | 0.837 nM
3 | K([AEEA-γGlu-C20 diacid])CNTATCATQRLANFLRHSSPNFGAIPSSTNVGSETY-NH2 (disulfide 2-7; N-terminus assumed; SMILES CC[C@H](C)[C@H](NC(=O)[C@H](C)NC(=O)CNC(=O)[C@H](Cc1ccccc1)NC(=O)[C@H](CC(N)=O)NC(=O)[C@@H]1CCCN1C(=O)[C@H](CO)NC(=O)[C@H](CO)NC(=O)[C@H](Cc1c[nH]cn1)NC(=O)[C@H](CCCNC(=N)N)NC(=O)[C@H](CC(C)C)NC(=O)[C@H](Cc1ccccc1)NC(=O)[C@H](CC(N)=O)NC(=O)[C@H](C)NC(=O)[C@H](CC(C)C)NC(=O)[C@H](CCCNC(=N)N)NC(=O)[C@H](CCC(N)=O)NC(=O)[C@@H](NC(=O)[C@H](C)NC(=O)[C@@H]1CSSC[C@H](NC(=O)[C@@H](N)CCCCNC(=O)COCCOCCNC(=O)CC[C@H](NC(=O)CCCCCCCCCCCCCCCCCCC(=O)O)C(=O)O)C(=O)N[C@@H](CC(N)=O)C(=O)N[C@@H]([C@@H](C)O)C(=O)N[C@@H](C)C(=O)N[C@@H]([C@@H](C)O)C(=O)N1)[C@@H](C)O)C(=O)N1CCC[C@H]1C(=O)N[C@@H](CO)C(=O)N[C@@H](CO)C(=O)N[C@H](C(=O)N[C@@H](CC(N)=O)C(=O)N[C@H](C(=O)NCC(=O)N[C@@H](CO)C(=O)N[C@@H](CCC(=O)O)C(=O)N[C@H](C(=O)N[C@@H](Cc1ccc(O)cc1)C(N)=O)[C@@H](C)O)C(C)C)[C@@H](C)O, also called compound 26) | 0.532 nM

These reach a lower IC50. Values come first.

Row | IC50 | Binder
4 | 0.249 nM | K([AEEA-γGlu-C20 diacid])CNTATCATQRLANFLRHSSPNFGAIPSSTNVGSRTY-NH2 (disulfide 2-7; N-terminus assumed; SMILES CC[C@H](C)[C@H](NC(=O)[C@H](C)NC(=O)CNC(=O)[C@H](Cc1ccccc1)NC(=O)[C@H](CC(N)=O)NC(=O)[C@@H]1CCCN1C(=O)[C@H](CO)NC(=O)[C@H](CO)NC(=O)[C@H](Cc1c[nH]cn1)NC(=O)[C@H](CCCNC(=N)N)NC(=O)[C@H](CC(C)C)NC(=O)[C@H](Cc1ccccc1)NC(=O)[C@H](CC(N)=O)NC(=O)[C@H](C)NC(=O)[C@H](CC(C)C)NC(=O)[C@H](CCCNC(=N)N)NC(=O)[C@H](CCC(N)=O)NC(=O)[C@@H](NC(=O)[C@H](C)NC(=O)[C@@H]1CSSC[C@H](NC(=O)[C@@H](N)CCCCNC(=O)COCCOCCNC(=O)CC[C@H](NC(=O)CCCCCCCCCCCCCCCCCCC(=O)O)C(=O)O)C(=O)N[C@@H](CC(N)=O)C(=O)N[C@@H]([C@@H](C)O)C(=O)N[C@@H](C)C(=O)N[C@@H]([C@@H](C)O)C(=O)N1)[C@@H](C)O)C(=O)N1CCC[C@H]1C(=O)N[C@@H](CO)C(=O)N[C@@H](CO)C(=O)N[C@H](C(=O)N[C@@H](CC(N)=O)C(=O)N[C@H](C(=O)NCC(=O)N[C@@H](CO)C(=O)N[C@@H](CCCNC(=N)N)C(=O)N[C@H](C(=O)N[C@@H](Cc1ccc(O)cc1)C(N)=O)[C@@H](C)O)C(C)C)[C@@H](C)O, also called compound 38)
5 | 0.411 nM | K([γGlu-γGlu-C20 diacid])CNTATCATQRLADFLRHSSPNFGAIPSSTNVGSDTY-NH2 (disulfide 2-7; N-terminus assumed; SMILES CC[C@H](C)[C@H](NC(=O)[C@H](C)NC(=O)CNC(=O)[C@H](Cc1ccccc1)NC(=O)[C@H](CC(N)=O)NC(=O)[C@@H]1CCCN1C(=O)[C@H](CO)NC(=O)[C@H](CO)NC(=O)[C@H](Cc1c[nH]cn1)NC(=O)[C@H](CCCNC(=N)N)NC(=O)[C@H](CC(C)C)NC(=O)[C@H](Cc1ccccc1)NC(=O)[C@H](CC(=O)O)NC(=O)[C@H](C)NC(=O)[C@H](CC(C)C)NC(=O)[C@H](CCCNC(=N)N)NC(=O)[C@H](CCC(N)=O)NC(=O)[C@@H](NC(=O)[C@H](C)NC(=O)[C@@H]1CSSC[C@H](NC(=O)[C@@H](N)CCCCNC(=O)CC[C@H](NC(=O)CC[C@H](NC(=O)CCCCCCCCCCCCCCCCCCC(=O)O)C(=O)O)C(=O)O)C(=O)N[C@@H](CC(N)=O)C(=O)N[C@@H]([C@@H](C)O)C(=O)N[C@@H](C)C(=O)N[C@@H]([C@@H](C)O)C(=O)N1)[C@@H](C)O)C(=O)N1CCC[C@H]1C(=O)N[C@@H](CO)C(=O)N[C@@H](CO)C(=O)N[C@H](C(=O)N[C@@H](CC(N)=O)C(=O)N[C@H](C(=O)NCC(=O)N[C@@H](CO)C(=O)N[C@@H](CC(=O)O)C(=O)N[C@H](C(=O)N[C@@H](Cc1ccc(O)cc1)C(N)=O)[C@@H](C)O)C(C)C)[C@@H](C)O, also called compound 2)
